Results published in paper PMC7722742, “Structure of native glycolipoprotein filaments in honeybee royal jelly” (Nature Communications, 2020).

B1: major royal jelly protein 1 (natural protein, Apis mellifera, UniProt O18330 20-432, looked up)
chain: NILRGESLNKSLPILHEWKFFDYDFGSDERRQDAILSGEYDYKNNYPSDIDQWHDKIFVTMLRYNGVPSSLNVISKKVGDGGPLLQPYPDWSFAKYDDCSGIVSASKLAIDKCDRLWVLDSGLVNNTQPMCSPKLLTFDLTTSQLLKQVEIPHDVAVNATTGKGRLSSLAVQSLDCNTNSDTMVYIADEKGEGLIVYHNSDDSFHRLTSNTFDYDPKFTKMTIDGESYTAQDGISGMALSPMTNNLYYSPVASTSLYYVNTEQFRTSDYQQNDIHYEGVQNILDTQSSAKVVSKSGVLFFGLVGDSALGCWNEHRTLERHNIRTVAQSDETLQMIASMKIKEALPHVPIFDRYINREYILVLSNKMQKMVNNDFNFDDVNFRIMNANVNELILNTRCENPDNDRTPFKISIHL
modifications: N-linked glycans at Asn28, Asn144 and Asn177 (modelled: one NAG at Asn28, two NAG at Asn144, two NAG plus a BMA at Asn177)
notes: major royal jelly protein 1 (MRJP1), honeybee Apis mellifera, native glycoprotein from royal jelly; the final model holds residues 20-431; Native protein; in the filament it stands with apisimin, 24-methylenecholesterol and further unassigned lipids; also called MRJP1; MRPJ1; source: purified from commercially available royal jelly as RJ filaments (ammonium sulfate precipitation, SEC at pH 4.0)
B2: apisimin (natural protein, Apis mellifera, UniProt Q8ISL8 25-78, looked up)
chain: KTSISVKGESNVDVVSQINSLVSSIVSGANVSAVLLAQTLVNILQILIDANVFA
notes: apisimin, small (5 kDa) royal jelly protein, honeybee Apis mellifera, native; the final model holds residues 33-76; Native protein, co-purified with MRJP1 in the filaments; also called apimisin; source: purified from commercially available royal jelly as RJ filaments (ammonium sulfate precipitation, SEC at pH 4.0)

How the values were obtained:
[1] = biological target: T1, MRJP1_4/apisimin4 hetero-octamer (native royal jelly filament) (Apis mellifera, UniProt O18330+Q8ISL8); assay: cryo-EM helical reconstruction, […] A; format: binding; settings: pH 4.0; native co-purified lipid, 8 per MRJP1_4/apisimin4 unit; built starting from crystal structure PDB 5yyl
T1 construct: gene Mrjp1; native, purified from commercial royal jelly (Bio-Gelee Royale) at pH 4.0; N-glycosylated (Asn28, Asn144, Asn177); signal peptides removed; N-termini NILRGE (MRJP1) and KTSISV (apisimin); model residues 20-431 of MRJP1 and 33-76 of apisimin; 4:4 hetero-octamers stacked into helical filaments
T1 sequence (O18330 20-432): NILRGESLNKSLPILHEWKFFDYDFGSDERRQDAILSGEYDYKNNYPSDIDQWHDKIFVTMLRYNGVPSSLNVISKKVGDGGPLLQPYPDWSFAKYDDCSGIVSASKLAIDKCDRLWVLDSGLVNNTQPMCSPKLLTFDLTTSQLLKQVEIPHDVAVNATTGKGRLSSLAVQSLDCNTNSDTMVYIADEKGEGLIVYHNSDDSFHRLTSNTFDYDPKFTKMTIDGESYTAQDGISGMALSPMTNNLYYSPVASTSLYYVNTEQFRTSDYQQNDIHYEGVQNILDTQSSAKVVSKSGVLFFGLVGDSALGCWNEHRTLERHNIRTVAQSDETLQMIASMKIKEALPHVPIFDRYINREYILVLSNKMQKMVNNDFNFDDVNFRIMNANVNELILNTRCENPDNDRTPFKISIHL
T1 sequence (Q8ISL8 25-78): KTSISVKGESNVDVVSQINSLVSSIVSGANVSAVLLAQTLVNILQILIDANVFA

apisimin = biological target: B2; assay: quantitative Edman sequencing; purified RJ filaments (SEC fractions above 500 kDa, pH 4.0); six degradation cycles; molar ratio of the MRJP1 and apisimin residues; settings: both partners purified
[2] = biological target: the molecule itself; assay: cryo-EM structure; real-space helical reconstruction of native RJ filaments purified at pH 4.0 (10 mM formic acid-NaOH pH 4.0, 150 mM NaCl), graphene oxide-coated grids, 3.5 Å
[3] = biological target: B1; assay: as above; settings: both partners purified

Molecule | cryo-EM helical reconstruction, 3.5 A [1] | stoichiometry N (apisimin) | binding result [2] | binding result [3]
C=C(CC[C@@H](C)[C@H]1CC[C@H]2[C@@H]3CC=C4C[C@@H](O)CC[C@]4(C)[C@H]3CC[C@]12C)C(C)C [24-methylenecholesterol] | Apisimin is colored in red, 24-methylenecholesterol in blue, and N-glycans in silver. |  |  | 
B1 |  | 1.15 ± 0.32 molar ratio MRJP1/apisimin | binds | 
B2 |  |  | binds | binds
